This is an account of results in publication PMC6013494, “Dual recognition of H3K4me3 and H3K27me3 by a plant histone reader SHL” (Nature Communications, 2018).

Sequences and labels used below:
T1: PtSHL + H3K4me3 (Populus trichocarpa, UniProt B9H0V2)
T1 sequence (B9H0V2 1-215): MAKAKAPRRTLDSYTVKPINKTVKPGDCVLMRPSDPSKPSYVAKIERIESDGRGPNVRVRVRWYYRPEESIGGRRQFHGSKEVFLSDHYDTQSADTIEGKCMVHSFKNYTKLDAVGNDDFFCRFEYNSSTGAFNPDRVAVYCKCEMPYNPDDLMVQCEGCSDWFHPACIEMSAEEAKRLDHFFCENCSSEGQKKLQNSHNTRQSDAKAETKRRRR

T2: H3K4me1 (Arabidopsis thaliana)
T2 chain: ARTK(Me)QTARKSTGGKAY

T3: H3K4me2 (Arabidopsis thaliana)
T3 chain: ARTK(Me2)QTARKSTGGKAY

T4: PtSHL Y148A (Populus trichocarpa)
T4 chain: T1 sequence (B9H0V2 1-215) with Y148A

T5: PtSHL Q156A (Populus trichocarpa)
T5 chain: T1 sequence (B9H0V2 1-215) with Q156A

B1: SHL from Populus trichocarpa (PtSHL), wild type (natural protein)
chain: SMAKAKAPRRTLDSYTVKPINKTVKPGDCVLMRPSDPSKPSYVAKIERIESDGRGPNVRVRVRWYYRPEESIGGRRQFHGSKEVFLSDHYDTQSADTIEGKCMVHSFKNYTKLDAVGNDDFFCRFEYNSSTGAFNPDRVAVYCKCEMPYNPDDLMVQCEGCSDWFHPACIEMSAEEAKRLDHFFCENCSSEGQKKLQNSHNTRQSDAKAETKRRRR
B2: H3K27me2 peptide with an additional C-terminal tyrosine (ITC) (peptide)
chain: LATKAARK(Me2)SAPATGGVKY
B3: H3(1-15)K4me3 peptide with an additional C-terminal tyrosine (ITC) (peptide)
chain: ARTK(Me3)QTARKSTGGKAY
B4: H3K27me1 peptide with an additional C-terminal tyrosine (ITC) (peptide)
chain: LATKAARK(Me)SAPATGGVKY

Assay [1] deals with SHL from Populus trichocarpa (PtSHL), wild type (Populus trichocarpa). Briefly: ITC; PtSHL pre-saturated with 2-fold excess H3(1-15)K4me3 peptide, titrated by H3(20-36)K27me3 peptide; 20 °C, 100 mM NaCl, 20 mM Tris-HCl pH 8.0. (Isothermal titration calorimetry measures the heat released or taken up as one component is titrated into another.)
For assay [2], the target named is Arabidopsis SHORT LIFE (AtSHL), full length, tag removed (Arabidopsis) (UniProt Q9FEN9). Briefly: ITC; Microcal PEAQ-ITC, 20 °C; 100 mM NaCl, 20 mM Tris-HCl pH 8.0; protein titrated by peptide.
Arabidopsis SHORT LIFE (AtSHL), full length, tag removed (Arabidopsis), sequence (Q9FEN9 whole entry): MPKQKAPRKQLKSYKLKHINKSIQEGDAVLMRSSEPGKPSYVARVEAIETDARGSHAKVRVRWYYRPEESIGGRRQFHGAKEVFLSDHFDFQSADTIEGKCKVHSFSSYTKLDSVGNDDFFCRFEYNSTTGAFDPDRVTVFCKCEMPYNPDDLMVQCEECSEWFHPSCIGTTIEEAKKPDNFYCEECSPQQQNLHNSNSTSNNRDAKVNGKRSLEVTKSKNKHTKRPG
Assay [3] addresses SHL from Populus trichocarpa (PtSHL), wild type (Populus trichocarpa). The description is as above.
Assay [4] has the same target. Briefly: ITC; PtSHL pre-saturated with 2-fold excess H3(20-36)K27me3 peptide, titrated by H3(1-15)K4me3 peptide; 20 °C, 100 mM NaCl, 20 mM Tris-HCl pH 8.0.
The test system of assay [5] is full-length AtSHL. Briefly: Histone peptide pulldown, full-length AtSHL. In kind it is binding, Arabidopsis thaliana. As to conditions: biotinylated histone peptides, 2 μg GST-tagged SHL, 50 mM Tris-HCl, pH 8.0, 300 mM NaCl, 3 h at 4 °C; anti-GST immunoblot. On the procedure: The […] biotinylated histone peptides were first incubated with 62.5 μl magnetic streptavidin bead slurry (NEB) pre-washed with 1 ml peptide binding buffer (50 mM Tris-HCl, pH 8.0, 300 mM NaCl, 0.1% Nonidet P-40) for 1 h at 4 °C. The peptide-bound beads were washed twice with 1 ml of peptide binding buffer and then incubated with 2 μg GST-tagged SHL proteins in the peptide binding buffer for 3 h at 4 °C. After washing three times with binding buffer, protein-bead complex was boiled in 1XSDS loading buffer (50 mM Tris-HCl, pH 6.8, 2% sodium dodecyl sulfate, 0.01% bromophenol blue, 2 mM dithiothreitol and 2 mM β-mercaptoethanol), subjected to SDS-PAGE gel, and detected with an anti-GST antibody (CAB4169, Thermo Fisher, 1:3000). The raw images of the western blots can be found in Supplementary Fig. 6a.
(Immunoblotting shows a protein as a band on a membrane.)

Assay [6] relates to full-length AtSHL. Briefly: Histone peptide microarray, full-length AtSHL. In kind it is binding, Arabidopsis thaliana. To be noted: 500 nM GST-tagged SHL, 50 mM HEPES, pH 7.5, 50 mM NaCl, RT, 2 h; anti-GST, fluorescence 635 nm; average of three replicate spots. How it is done: Peptide microarray assay was performed as following a previous study. Specifically, the peptide array slide was blocked with blocking solution (1 × PBS, 0.05% Tween-20 pH 7.4, 1% BSA) at 4 °C overnight. After washing three times with 1 ml TTBS buffer (10 mM Tris-HCl, pH 7.5, 150 mM NaCl, 0.05% Tween-20), the slide was incubated with 500 nM GST-tagged recombinant SHL in 1 ml binding buffer (50 mM HEPES, pH 7.5, 50 mM NaCl, 5% glycerol, 0.4% BSA, 2 mM DTT) at RT for 2 h. The slide was then washed with TTBS three times and incubated with an anti-GST antibody (Thermo Fisher, CAB4169, 1:3000 dilution) in TBS with 1% BSA for 1 h at RT. After washing with TTBS three times, the slide was incubated with an anti-rabbit IRDye 650 secondary antibody (LI-COR, P/N 926-65020, 1:5000 dilution) in 1 ml TBS buffer with 1% BSA for 1 h. The slide was washed with TTBS three times, dried by centrifugation, and imaged at dual wavelengths of 532 and 635 nm on Axon GenePix 4000B (Molecular Devices). The laser power was set to 100%, with automatic gain adjustment (0.05% saturation tolerance) for dual photomultipliers. […] Signal intensities were quantified by GenePix Pro 6.1 software (Molecular Devices). […] For each peptide species, an average was calculated from three replicate spots. […]

The target of another assay is PtSHL H88A. Kind of assay: ITC, PtSHL H88A. Details: species or system Populus trichocarpa. As to conditions: 20 °C, pH 8.0, NDB, no detectable binding. On the procedure:
(§1) The full-length AtSHL was cloned into a pET-Sumo vector to fuse a hexahistidine-sumo tag to the target protein. The plasmids were transformed into Escherichia coli strain BL21(DE3) RIL (Stratagene). The protein expression was induced by adding IPTG to a final concentration of 0.2 mM upon the OD600 of cell culture reaching to 0.7, followed by overnight induction at 20 °C. The recombinant protein was purified using a HisTrap column (GE Healthcare). The hexahistidine-sumo tag was cleaved by ulp1 protease and removed by a second step HisTrap column. The AtSHL protein was further purified using a Superdex G200 column (GE Healcare). The PtSHL was cloned, expressed, and purified using the same strategy as AtSHL. All mutant versions of SHL were generated using a PCR based method and expressed and purified using the same protocol as wild type SHL protein. The peptides were purchased from the GL Biochem Company (Shanghai).
(§2) The interaction between SHL and histone peptides was monitored on a Microcal PEAQ-ITC instrument (Malvern) at 20 °C. An additional artificial tyrosine residue was added to the C-terminus of the peptide in the ITC experiment for accurately measuring the concentration of peptide by OD280. The protein was dialyzed against a buffer of 100 mM NaCl and 20 mM Tris-HCl, pH 8.0 for 3 h and the lyophilized peptides were dissolved into the same buffer. […]

In another assay the target is PtSHL D90A. Briefly: ITC, PtSHL D90A. Further details: species or system Populus trichocarpa. As to conditions: 20 °C, pH 8.0, NDB, no detectable binding. On the procedure:
as §1, §2

In another assay the target is T1, PtSHL + H3K4me3. Briefly: Competitive ITC, PtSHL pre-saturated with 2-fold excess H3(1-15)K4me3. To be noted: ITC binding stoichiometry. On the procedure:
To further investigate the binding mechanism of H3K4me3 and H3K27me3 by the two domains of SHL, we performed competitive binding assays.
The interaction between SHL and histone peptides was monitored on a Microcal PEAQ-ITC instrument (Malvern) at 20 °C. An additional artificial tyrosine residue was added to the C-terminus of the peptide in the ITC experiment for accurately measuring the concentration of peptide by OD280. The protein was dialyzed against a buffer of 100 mM NaCl and 20 mM Tris-HCl, pH 8.0 for 3 h and the lyophilized peptides were dissolved into the same buffer. The titration data were fit using the program Origin 7.0.

The next assay deals with PtSHL Y41A. Briefly: ITC, PtSHL Y41A. Details: species or system Populus trichocarpa. As to conditions: 20 °C, pH 8.0, NDB, no detectable binding. How it is done:
as §1, §2

The target of the next assay is PtSHL. Kind of assay: ITC, PtSHL (wild type) with histone peptides. Further details: species or system Populus trichocarpa. As to conditions: Microcal PEAQ-ITC, 20 °C, 100 mM NaCl, 20 mM Tris-HCl, pH 8.0, peptide with additional C-terminal tyrosine, PtSHL WT, NDB, no detectable binding. How it is done: as §1, §2
For another assay, the target named is PtSHL Y65A. Kind of assay: ITC, PtSHL Y65A. Details: species or system Populus trichocarpa. To be noted: 20 °C, pH 8.0, NDB, no detectable binding. How it is done: as §1, §2
Another assay addresses PtSHL W63A. Kind of assay: ITC, PtSHL W63A. Further details: species or system Populus trichocarpa. As to conditions: 20 °C, pH 8.0, NDB, no detectable binding. On the procedure:
as §1, §2

For a further assay, the target named is T2, H3K4me1. Kind of assay: ITC.
For another assay, the target named is T3, H3K4me2. Briefly: ITC.
For assay [7], the target named is B1. Kind of assay: ITC.
A further assay concerns the target T4, PtSHL Y148A. Briefly: ITC.
The next assay addresses T5, PtSHL Q156A. Briefly: ITC.

Residue numbers refer to the chain shown, from its start. “Also recorded” adds a separate entry of the source. No end group written: not given here. Me3 = trimethyl-lysine; Me2 = dimethyl-lysine

On to “H3(20-36)K27me3 peptide with an additional C-terminal tyrosine (ITC)”, for which the dissociation constant (Kd) (usually the concentration at which binding is half-saturated) is 18.7 µM in assay [1], 15.1 µM in assay [2] and 21.3 µM in assay [3].

Regarding “H3(1-15)K4me3 peptide with an additional C-terminal tyrosine (ITC)”, the Kd in assay [3] is 20.6 µM; in assay [4] it was 27.6 µM.

With “H3(1-35)K4me3K27me3 peptide with an additional C-terminal tyrosine (ITC)”, in assay [3], the Kd was 16.9 µM and the stoichiometry N – broadly, the number of molecules, sites or subunits per partner or assembly – worked out at 1.17.

Regarding `CC(C)C[C@H](N)C(=O)N[C@@H](C)C(=O)N[C@H](C(=O)N[C@@H](CCCCN)C(=O)N[C@@H](C)C(=O)N[C@@H](C)C(=O)N[C@@H](CCCNC(=N)N)C(=O)N[C@@H](CCCC[N+](C)(C)C)C(=O)N[C@@H](CO)C(=O)N[C@@H](C)C(=O)N1CCC[C@H]1C(=O)N[C@@H](C)C(=O)N[C@H](C(=O)NCC(=O)NCC(=O)N[C@H](C(=O)N[C@@H](CCCCN)C(=O)N[C@@H](Cc1ccc(O)cc1)C(=O)O)C(C)C)[C@@H](C)O)[C@@H](C)O` [H3K27me3], in the assay on full-length AtSHL [5], the “binding in histone peptide pulldown” value was “capable of binding”. Further, the “binding on histone peptide microarray” value with full-length AtSHL [6] is on record as “preferentially binds; also recorded: strong binding affinity”. In addition, the Kd result at PtSHL H88A is “NDB and abolished”; at PtSHL D90A, “NDB and abolished”; on PtSHL Y41A it was “NDB and abolished”; on PtSHL it was 21.3 µM; at PtSHL Y65A, “NDB and abolished”; on PtSHL W63A it was “NDB and abolished”. The N-value at PtSHL + H3K4me3 came to 0.818.

In turn, “H3K27me2 peptide with an additional C-terminal tyrosine (ITC)” returned a Kd in assay [2] of 30.8 µM.

In assay [2], “H3K27me1 peptide with an additional C-terminal tyrosine (ITC)” came in with a Kd of 78.3 µM.

In the case of B1, the equilibrium dissociation constant (Kd) with H3K4me1 is 67.1 µM; with H3K4me2 it was 23.9 µM.

Turning to B2, binding in assay [7] was characterised by a dissociation constant (Kd) of 28.9 µM.

Consider B3, for which the Kd with PtSHL Y148A was 44 µM; with PtSHL Q156A, 66.1 µM.

B4: in [7], binding was put at a Kd of 58.1 µM.
